Measured values from PMC3950718, “The RNA helicase RHAU (DHX36) suppresses expression of the transcription factor PITX1”.

T1: RHAU (full length) (UniProt Q9H2U1 1-1008)
T1 sequence: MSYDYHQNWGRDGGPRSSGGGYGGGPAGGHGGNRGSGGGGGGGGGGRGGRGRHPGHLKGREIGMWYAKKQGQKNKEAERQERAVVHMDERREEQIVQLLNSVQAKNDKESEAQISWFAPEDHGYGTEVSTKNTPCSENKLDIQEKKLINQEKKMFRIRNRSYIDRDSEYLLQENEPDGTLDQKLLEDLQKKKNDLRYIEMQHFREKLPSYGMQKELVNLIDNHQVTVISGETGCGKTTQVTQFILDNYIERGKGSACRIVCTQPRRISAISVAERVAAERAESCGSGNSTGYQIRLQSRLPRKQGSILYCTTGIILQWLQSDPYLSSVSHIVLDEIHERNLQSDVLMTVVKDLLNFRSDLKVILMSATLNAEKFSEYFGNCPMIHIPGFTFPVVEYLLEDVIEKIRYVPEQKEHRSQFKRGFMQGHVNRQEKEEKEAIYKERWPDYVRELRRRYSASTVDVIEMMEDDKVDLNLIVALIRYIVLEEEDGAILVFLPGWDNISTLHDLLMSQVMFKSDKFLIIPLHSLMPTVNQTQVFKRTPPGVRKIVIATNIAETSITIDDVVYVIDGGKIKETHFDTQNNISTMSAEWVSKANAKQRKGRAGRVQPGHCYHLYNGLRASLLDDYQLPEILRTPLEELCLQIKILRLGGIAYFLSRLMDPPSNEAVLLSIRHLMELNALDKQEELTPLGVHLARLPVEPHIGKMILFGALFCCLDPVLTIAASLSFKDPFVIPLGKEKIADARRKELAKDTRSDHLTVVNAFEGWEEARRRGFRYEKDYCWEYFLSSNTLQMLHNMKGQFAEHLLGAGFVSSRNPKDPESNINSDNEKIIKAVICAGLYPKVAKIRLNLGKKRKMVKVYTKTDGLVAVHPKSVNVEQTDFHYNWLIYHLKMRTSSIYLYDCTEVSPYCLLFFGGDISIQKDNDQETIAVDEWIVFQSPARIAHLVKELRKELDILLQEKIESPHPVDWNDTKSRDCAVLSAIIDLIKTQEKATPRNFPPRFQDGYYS

T2: RHAU53-105 (UniProt Q9H2U1 53-105)
T2 sequence: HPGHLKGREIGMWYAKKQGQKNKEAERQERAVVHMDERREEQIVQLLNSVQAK

T3: 6xHis-RHAU53-105 (UniProt Q9H2U1 53-105)
T3 sequence: T2 sequence

B1: PITX1 Q2 (structured_RNA)
RNA: GUUGGGGCGGGCGUUGGGUUUGGGGGGACG
B2: PITX1 Q1Mut (ssRNA)
RNA: GAGCGCGGAAGCGCGCGCGCGCGCGCGCGG
B3: PITX1 Q1 (structured_RNA)
RNA: GAGCGGGGAAGGGCGCGGGCGCGGGCGCGG
B4: PITX1 Q3 (structured_RNA)
RNA: AGCGGGCAGUGCGGGCCUGGCGGGAGGUGGGGGAGG

Legend:
RHAU (full length) = biological target: T1, RHAU (full length); assay: EMSA; 150 nM RNA, 0-750 nM protein; RNA in 50 mM Tris pH 7.6, 100 mM KCl; EMSA as in ref 12/36 (150 nM RNA, 0-750 nM protein); pull-down binding buffer 50 mM Tris-acetate pH 7.8, 100 mM KCl, 10 mM NaCl, 3 mM MgCl2, 70 mM glycine, 10% glycerol, room temperature; details: protein: recombinant, label: 5' biotin
RHAU53-105 [1] = biological target: T2, RHAU53-105; assay: EMSA; 150 nM RNA, 0-750 nM protein; qualitatively lower affinity than full length; RNA in 50 mM Tris pH 7.6, 100 mM KCl; EMSA as in ref 12/36 (150 nM RNA, 0-750 nM protein); pull-down binding buffer 50 mM Tris-acetate pH 7.8, 100 mM KCl, 10 mM NaCl, 3 mM MgCl2, 70 mM glycine, 10% glycerol, room temperature; details: protein: recombinant; label: 5' biotin; G-quadruplex
RHAU53-105 [2] = biological target: T2, RHAU53-105; assay: EMSA; 150 nM RNA, 0-750 nM protein; RNA in 50 mM Tris pH 7.6, 100 mM KCl; EMSA as in ref 12/36 (150 nM RNA, 0-750 nM protein); pull-down binding buffer 50 mM Tris-acetate pH 7.8, 100 mM KCl, 10 mM NaCl, 3 mM MgCl2, 70 mM glycine, 10% glycerol, room temperature; details: protein: recombinant; label: 5' biotin; no quadruplex (no NMM staining)
6xHis-RHAU53-105 [3] = biological target: T3, 6xHis-RHAU53-105; assay: EMSA; RNA in 50 mM Tris pH 7.6, 100 mM KCl; EMSA as in ref 12/36 (150 nM RNA, 0-750 nM protein); pull-down binding buffer 50 mM Tris-acetate pH 7.8, 100 mM KCl, 10 mM NaCl, 3 mM MgCl2, 70 mM glycine, 10% glycerol, room temperature; details: protein: recombinant; tags: 6xHis; label: 5' biotin; no quadruplex (no NMM staining)
6xHis-RHAU53-105 [4] = biological target: T3, 6xHis-RHAU53-105; assay: EMSA; 150 nM RNA; affinity similar to untagged; RNA in 50 mM Tris pH 7.6, 100 mM KCl; EMSA as in ref 12/36 (150 nM RNA, 0-750 nM protein); pull-down binding buffer 50 mM Tris-acetate pH 7.8, 100 mM KCl, 10 mM NaCl, 3 mM MgCl2, 70 mM glycine, 10% glycerol, room temperature; details: protein: recombinant; tags: 6xHis; label: 5' biotin; G-quadruplex

| Binder | binding result (RHAU (full length); G-quadruplex) | binding result (RHAU53-105 [1]) | binding result (RHAU (full length); no quadruplex (no NMM staining)) | binding result (RHAU53-105 [2]) | binding result (6xHis-RHAU53-105 [3]) | binding result (6xHis-RHAU53-105 [4]) |
| --- | --- | --- | --- | --- | --- | --- |
| B1 | binds | binds | – | – | – | – |
| B2 | – | – | no binding | no binding | no binding | – |
| B3 | binds | binds | – | – | – | binds |
| B4 | binds | binds | – | – | – | – |
